Source: US12139520B2 (priority 2020, dated 2024)
Numbered stars: 1 amine (or outer) side, 2 acyl side, 3 side chain; on linkers, the order of the positions; unused ones are H or OH. Bridge positions count the residues as written; N and C are the ends. Square brackets hold non-standard residues; d marks the D form. Side chains are listed from the residue outwards. Ends that are not written are not given here. * marks the point of attachment. C20 diacid = O=C(O)CCCCCCCCCCCCCCCCCCC(=O)*; γGlu = O=C(O)[C@H](CCC(=O)[*:2])N[*:1]; Hyp = O=C(O)[C@@H]1C[C@@H](O)CN1; NMeI = CC[C@H](C)[C@H](NC)C(=O)O; AEEA = NCCOCCOCC(=O)O; Sar = CNCC(=O)O

T1: hAMY3R (human, UniProt P30988)
T1 sequence 1: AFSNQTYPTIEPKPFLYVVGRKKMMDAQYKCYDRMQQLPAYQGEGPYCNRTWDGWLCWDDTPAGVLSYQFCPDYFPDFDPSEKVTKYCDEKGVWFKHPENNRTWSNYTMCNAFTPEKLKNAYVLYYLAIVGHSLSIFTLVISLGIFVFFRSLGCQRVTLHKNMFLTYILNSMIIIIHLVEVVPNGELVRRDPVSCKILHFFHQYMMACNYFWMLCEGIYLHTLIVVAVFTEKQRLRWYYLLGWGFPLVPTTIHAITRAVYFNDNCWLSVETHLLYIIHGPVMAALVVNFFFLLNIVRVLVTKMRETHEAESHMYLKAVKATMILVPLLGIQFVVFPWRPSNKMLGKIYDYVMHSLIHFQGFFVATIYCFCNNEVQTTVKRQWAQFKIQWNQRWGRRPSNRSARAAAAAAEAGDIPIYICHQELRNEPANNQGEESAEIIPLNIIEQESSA
T1 sequence 2: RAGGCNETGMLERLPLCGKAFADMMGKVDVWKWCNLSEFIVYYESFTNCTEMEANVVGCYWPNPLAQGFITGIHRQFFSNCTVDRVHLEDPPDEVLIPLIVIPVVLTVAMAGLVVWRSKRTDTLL


What was measured:
hAMY3R = biological target: T1, hAMY3R; experiment: cell-based or functional assay
hAM1R = hAM1R (human, UniProt Q16602); experiment: cell-based or functional assay

Binder | hAMY3R EC50 (cAMP) (hAMY3R) | hAM1R EC50 (cAMP) (hAM1R)
{C20 diacid-γGlu}-KCNTATCTVARLAHQINQFTDKDKDNVAPPTNVGSNG[Hyp]-NH2 (disulfide 2-7 (inferred); not fully specified; ends not checked) [SEQ ID NO: 86] | 0.015 nM | > 5000 nM
KCNTATCATQRLANFLVHSSNNFGAIAPSTKVGSNGY [SEQ ID NO: 93] | 0.016 nM | > 5000 nM
{C20 diacid-γGlu}-KCNTATCTVQRLAHQIAQFTDKDKDPVAPPTNVGSNG[Hyp]-NH2 (disulfide 2-7 (inferred); not fully specified; ends not checked) [SEQ ID NO: 92] | 0.016 nM | 933 nM
{C20 diacid-γGlu}-KCNTATCTVQRLAHQIYQFTDKDKDNVAPRTKVGSNG[Hyp] (disulfide 2-7 (inferred); ends not checked) [SEQ ID NO: 99] | 0.017 nM | 364 nM
{C20 diacid-γGlu}-KCNTATCTVQRLAEQIAQFTDKDKDNVAPPTNVGSNG[Hyp]-NH2 (disulfide 2-7 (inferred); not fully specified; ends not checked) [SEQ ID NO: 78] | 0.014 nM | > 5000 nM
{C20 diacid-γGlu}-KCNTATCTVQRLAHQIAQFSDKDKDNVAPPTNVGSNG[Hyp]-NH2 (disulfide 2-7 (inferred); not fully specified; ends not checked) [SEQ ID NO: 79] | 0.014 nM | > 5000 nM
{C20 diacid-γGlu}-KCNTATCTVQRLAHQIAQFYDKDKDNVAPPTNVGSNG[Hyp]-NH2 (disulfide 2-7 (inferred); not fully specified; ends not checked) [SEQ ID NO: 94] | 0.016 nM | > 5000 nM
{C20 diacid-γGlu}-KCNTATCTVVRLAHQIYQFTDKDKDNVAPPTNVGSNG[Hyp]-NH2 (disulfide 2-7 (inferred); ends not checked) [SEQ ID NO: 103] | 0.018 nM | > 5000 nM
GCRFGTCTVQRLAHQIYQFTDKDKDNVAPRTNVGPNG[Hyp]-NH2 (disulfide 2-7 (inferred); ends not checked) [SEQ ID NO: 90] | 0.016 nM | 58.5 nM
{C20 diacid-γGlu}-KCNTATCTVQRLAHQIYQFADKDKDNVAPPTNVGSNG[Hyp]-NH2 (disulfide 2-7 (inferred); not fully specified; ends not checked) [SEQ ID NO: 83] | 0.015 nM | 815 nM
KCNTATCTVQRLAHQIYQFTDKDKDNVAPRTEVGSNGY [SEQ ID NO: 102] | 0.018 nM | > 5000 nM
{C20 diacid-γGlu}-KCATATCTVQRLAEQIYQFTDKDKDNVAPPTNVGSNG[Hyp]-NH2 (disulfide 2-7 (inferred); not fully specified; ends not checked) [SEQ ID NO: 97] | 0.016 nM | > 5000 nM
{C20 diacid-γGlu}-KCNTATCTVQRLAHQIAQFTDKNKDNVAPPTNVGSNG[Hyp]-NH2 (disulfide 2-7 (inferred); not fully specified; ends not checked) [SEQ ID NO: 87] | 0.015 nM | > 5000 nM
KCNAATCTVQRLAEQIYQFTDKDKDNVAPPTNVGSNG[Hyp]-NH2 (disulfide 2-7 (inferred); ends not checked) [SEQ ID NO: 101] | 0.017 nM | > 5000 nM
RCNASTCTVNRLADQITQFSNKDKAQVSPPTEVGPNS[Hyp]-NH2 (disulfide 2-7 (inferred); ends not checked) [SEQ ID NO: 9] | 0.006 nM | > 5000 nM
{C20 diacid-γGlu}-KCNTATCTVQRLAHQIVQFTDKDKDNVAPPTNVGSNG[Hyp]-NH2 (disulfide 2-7 (inferred); not fully specified; ends not checked) [SEQ ID NO: 85] | 0.015 nM | > 5000 nM
{C20 diacid-γGlu}-KCNTATCTVQRLAEQIYQFTDKDKDQVAPPTNVGSNG[Hyp]-NH2 (disulfide 2-7 (inferred); ends not checked) [SEQ ID NO: 100] | 0.017 nM | > 5000 nM
{C20 diacid-γGlu}-KCNTSTCTVQRLAHQIAQFTDKDKDPVAPPTNVGSNG[Hyp]-NH2 (disulfide 2-7 (inferred); not fully specified; ends not checked) [SEQ ID NO: 88] | 0.015 nM | > 5000 nM
GCRTGTCTVQRLAHQIYQFTDKDKDNVAPRTNVGPNGY [SEQ ID NO: 84] | 0.015 nM | 2980 nM
GCRFGTCTVQRLAHQIYQFTDKDKDNVAPRTNVSPNGY [SEQ ID NO: 98] | 0.017 nM | 66.9 nM
GCRFGTCTVQRLAHQIYQFTDKDKDNVAPRTNIGPNG[Hyp]-NH2 (disulfide 2-7 (inferred); ends not checked) [SEQ ID NO: 81] | 0.015 nM | 138 nM
{C20 diacid-γGlu}-KCNTATCTVQRLAHQIYQFYDKDKDNVAPPTNVGSNG[Hyp]-NH2 (disulfide 2-7 (inferred); ends not checked) [SEQ ID NO: 104] | 0.018 nM | > 5000 nM
{C20 diacid-γGlu}-KCNTATCTVQRLAHQIAQFTNKDKDNVAPPTNVGSNG[Hyp]-NH2 (disulfide 2-7 (inferred); not fully specified; ends not checked) [SEQ ID NO: 95] | 0.016 nM | > 5000 nM
KCNTATCTVQRLAEQIYQFK([AEEA-AEEA-γGlu-C20 diacid])DKDKDNVAPPTNVGSNG[Hyp]-NH2 (disulfide 2-7 (inferred); not fully specified; ends not checked) [SEQ ID NO: 89] | 0.015 nM | > 5000 nM
{C20 diacid-γGlu}-KCNTATCTVQRLAHQIYQFTDKNKDNVAPPTNVGSNG[Hyp]-NH2 (disulfide 2-7 (inferred); not fully specified; ends not checked) [SEQ ID NO: 91] | 0.016 nM | 840 nM
{C20 diacid-γGlu}-KCNTATCTVQRLAHQIYQFTDKDKDNVAPPTNVGSNG[Hyp]-NH2 (disulfide 2-7 (inferred); not fully specified; ends not checked) [SEQ ID NO: 77] | 0.014 nM | > 5000 nM
{C20 diacid-γGlu}-RCQTATCATERLAHFLQRSSF[Sar]A[NMeI]LSSTEVGSNT[Hyp]-NH2 (disulfide 2-7 (inferred); not fully specified; ends not checked) [SEQ ID NO: 80] | 0.015 nM | 44.3 nM
{C20 diacid-γGlu}-KCNTATCTVQRLAHQIYQFTNKDKDNVAPPTNVGSNG[Hyp]-NH2 (disulfide 2-7 (inferred); not fully specified; ends not checked) [SEQ ID NO: 82] | 0.015 nM | 612 nM
{C20 diacid-γGlu}-KCNTATCTVQRLAEQIYQFTDKDKDNVAPPTNVGSNT[Hyp]-NH2 (disulfide 2-7 (inferred); not fully specified; ends not checked) [SEQ ID NO: 96] | 0.016 nM | > 5000 nM
KCNFATCTVQRLAHQIYQFTDKDKDNVAPPTEVGSNG[Hyp]-NH2 (disulfide 2-7 (inferred); ends not checked) [SEQ ID NO: 10] | 0.007 nM | 552 nM
